This note sets out measurements from article PMC4506495.

For data set [1], the target named is Magnetospirillum gryphiswaldense MSR-1 Fur C9L/M14L/M16V-triple mutant (Magnetospirillum gryphiswaldense MSR-1). The data set is described as follows: crystal structure; holo-Fur with 1 mM MnCl2, 1.9 Å; 10% PEG3000, 0.1 M CHES pH 9.0.
The target is the same in data set [2]. In words: crystal structure; Fur-Mn2+ with the 25-bp feoAB1 operator dsDNA (three base-pair mutations), 2.6 Å (SeMet form 2.82 Å).
For data set [3], the target named is Magnetospirillum gryphiswaldense MSR-1 ferric uptake regulator (Fur), wild type (Magnetospirillum gryphiswaldense MSR-1). The data set is described as follows: SEC; size-exclusion chromatography of apo-Fur in solution. In general terms: SEC sorts molecules by how far they enter the pores of the column.
Data set [4] has the same target. The data set is described as follows: crystal structure; apo-Fur without transition metal ions, 1.55 Å; crystals from (NH4)2SO4, 0.1 M sodium citrate pH 5.5.
The target is the same in data set [5]. The data set is described as follows: AUC; analytical ultracentrifugation of apo-Fur in solution.
Data set [6] deals with T1, MgFur WT (Magnetospirillum gryphiswaldense MSR-1) (UniProt V6F4Q0).
T1 sequence: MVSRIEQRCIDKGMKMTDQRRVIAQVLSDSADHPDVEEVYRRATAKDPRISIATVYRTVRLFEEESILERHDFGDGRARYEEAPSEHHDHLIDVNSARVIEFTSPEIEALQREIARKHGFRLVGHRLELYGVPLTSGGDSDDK
In words: SPR. The note with it: 1 mM Mn2+, SPR: 20 mM Tris-HCl pH 8.0, 150 mM NaCl, 1 mM MnCl2, 0.005% Tween20, 25 C, EMSA: 40 mM HEPES pH 7.0, 125 mM NaCl, 2 mM FeSO4/MnCl2/EDTA, footprinting: ….

The target in data set [7] is T2, MgFur K15A K15A (Magnetospirillum gryphiswaldense MSR-1) (UniProt V6F4Q0).
T2 sequence: T1 sequence with K15A
The data set is described as follows: SPR. The settings on record: 1 mM Mn2+, SPR: 20 mM Tris-HCl pH 8.0, 150 mM NaCl, 1 mM MnCl2, 0.005% Tween20, 25 C, EMSA: 40 mM HEPES pH 7.0, 125 mM NaCl, 2 mM FeSO4/MnCl2/EDTA, footprinting: ….

Data set [8] has as its target T3, MgFur E108A/H125A (metal site 2 mutant) E108A;H125A (Magnetospirillum gryphiswaldense MSR-1) (UniProt V6F4Q0).
T3 sequence: T1 sequence with E108A, H125A
In words: SPR. The note with it: 1 mM Mn2+, SPR: 20 mM Tris-HCl pH 8.0, 150 mM NaCl, 1 mM MnCl2, 0.005% Tween20, 25 C, EMSA: 40 mM HEPES pH 7.0, 125 mM NaCl, 2 mM FeSO4/MnCl2/EDTA, footprinting: …. A general note: A gel shift assay detects complexes by their altered migration in electrophoresis.

Where a chain is given by its changes, count along the chain named.

In general, stoichiometry N refers to the number of molecules, sites or subunits per partner or assembly. Regarding “Magnetospirillum gryphiswaldense MSR-1 Fur C9L/M14L/M16V-triple mutant (natural protein)”, the stoichiometry N in data set [1] and in data set [2] was 2 each time.

With “Magnetospirillum gryphiswaldense MSR-1 ferric uptake regulator (Fur), wild type (natural protein)”, the stoichiometry N in data set [3], in data set [4] and in data set [5] was 2 each time.

In general, Kd refers to a measure of binding affinity in units of concentration. High values mean a looser complex, low ones a tighter complex. Turning to “TTAATCGCAACTCATTCGCAATTGC (double strand) [feoAB1 operator (SPR)]”, the Kd was 85 nM in data set [6], 977 nM in data set [7] and 272 nM in data set [8].
